Legend:
Conditions in all cases: protein: ivt; tags: N-terminal FLAG; label: 5'-biotin
hTERT Q169A [1] = target: T1, hTERT Q169A (Homo sapiens, UniProt O14746 1-1132, Q169A); assay: pull-down; stronger than WT; 5'-biotin primers with RRL-made 35S-hTERT (no hTR), neutravidin bead pull-down; primer mix pre-incubated on ice 45-60 min; buffer, salt and pH not given (ref 28)
hTERT Q169N [2] = target: T2, hTERT Q169N (Homo sapiens, UniProt O14746 1-1132, Q169N); assay: as above
hTERT Q169D [3] = target: T3, hTERT Q169D (Homo sapiens, UniProt O14746 1-1132, Q169D); assay: as above
hTERT Q169N [4] = target: T2, hTERT Q169N; assay: pull-down; 5'-biotin primers with RRL-made 35S-hTERT (no hTR), neutravidin bead pull-down; primer mix pre-incubated on ice 45-60 min; buffer, salt and pH not given (ref 28)
hTERT Q169D [5] = target: T3, hTERT Q169D; assay: as above
hTERT Q169A [6] = target: T1, hTERT Q169A; assay: as above
hTERT WT = hTERT WT (Homo sapiens, UniProt O14746 1-1132); assay: as above
Sequence of hTERT WT (O14746 whole entry): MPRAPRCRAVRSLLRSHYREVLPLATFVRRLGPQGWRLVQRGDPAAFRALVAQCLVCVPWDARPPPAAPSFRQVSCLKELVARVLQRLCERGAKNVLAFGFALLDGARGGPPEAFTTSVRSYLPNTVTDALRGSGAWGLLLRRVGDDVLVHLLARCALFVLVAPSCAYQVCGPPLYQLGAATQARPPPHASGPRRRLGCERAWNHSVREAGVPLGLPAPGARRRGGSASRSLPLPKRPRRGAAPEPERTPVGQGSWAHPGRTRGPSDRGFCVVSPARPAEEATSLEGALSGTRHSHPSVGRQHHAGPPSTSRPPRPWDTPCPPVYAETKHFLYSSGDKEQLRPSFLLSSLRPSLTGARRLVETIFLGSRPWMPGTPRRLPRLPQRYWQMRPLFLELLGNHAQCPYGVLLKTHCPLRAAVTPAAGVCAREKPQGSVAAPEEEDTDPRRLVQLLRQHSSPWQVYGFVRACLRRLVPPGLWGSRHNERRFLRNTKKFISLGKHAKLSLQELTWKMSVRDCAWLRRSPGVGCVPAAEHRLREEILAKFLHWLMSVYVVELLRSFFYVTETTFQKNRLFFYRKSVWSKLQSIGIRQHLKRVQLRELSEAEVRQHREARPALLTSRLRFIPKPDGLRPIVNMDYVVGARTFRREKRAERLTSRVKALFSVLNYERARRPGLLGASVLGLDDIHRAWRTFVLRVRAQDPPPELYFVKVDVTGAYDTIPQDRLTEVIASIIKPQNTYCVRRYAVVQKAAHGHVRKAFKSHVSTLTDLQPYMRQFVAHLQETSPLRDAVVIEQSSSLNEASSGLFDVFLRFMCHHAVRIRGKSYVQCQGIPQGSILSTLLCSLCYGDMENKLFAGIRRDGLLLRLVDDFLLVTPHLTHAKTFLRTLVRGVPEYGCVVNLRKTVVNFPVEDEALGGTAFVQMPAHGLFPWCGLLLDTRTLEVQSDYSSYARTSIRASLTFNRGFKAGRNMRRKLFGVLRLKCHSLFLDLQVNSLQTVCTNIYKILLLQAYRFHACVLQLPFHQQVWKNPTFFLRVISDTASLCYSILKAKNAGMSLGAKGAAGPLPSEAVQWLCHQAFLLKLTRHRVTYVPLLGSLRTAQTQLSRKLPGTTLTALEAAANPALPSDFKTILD

T2 sequence (O14746 whole entry Q169N): as the sequence (O14746 whole entry) above, with Q169N counted along it
T1 sequence (O14746 whole entry Q169A): as the sequence (O14746 whole entry) above, with Q169A counted along it
T3 sequence (O14746 whole entry Q169D): as the sequence (O14746 whole entry) above, with Q169D counted along it

Binder | binding result (hTERT Q169A [1]) | binding result (hTERT Q169N [2]) | binding result (hTERT Q169D [3]) | binding result (hTERT Q169N [4]) | binding result (hTERT Q169D [5]) | binding result (hTERT Q169A [6]) | binding result (hTERT WT)
TTAGGGTTAGGGTTAGGGTTAGGG (ssDNA) [bio-TELO24] | binds |  |  |  |  |  | 
TTAGGGTTAGGG (ssDNA) [bio-TELO12] | binds | binds | binds |  |  |  | 
TTGGGGTTGGGGTTGGGG (ssDNA) [bio-Tetrahymena] |  |  |  | binds | binds | binds | binds
TTAGGG (ssDNA) [bio-TELO6] | binds | binds | binds |  |  |  | 

Reference: paper PMC2744565, “Human Telomerase Reverse Transcriptase (hTERT) Q169 Is Essential for Telomerase Function In Vitro and In Vivo”
